Experimental data from publication doi:10.1101/2020.05.24.113621 (bioRxiv, 2020).

Target: the molecule itself
Assay: crystal structure

B1: hnRNPA2 mutant core segment GNYNVF (residues 286-291 with D290V) (peptide)
peptide: GNYNVF
B1: binds.
